The values below come from PMC9371974 (Nature Structural & Molecular Biology, 2022).

The labels stand for the following.
B1: pomolog hcY57A (POM1 scFv, heavy chain Y57A) (scFv, V domains shown)
VH: QVQLQQSGTELVMPGASVKMSCKASGYTFTDYWMHWVKQRPGQGLEWIGSIDPSDSATSHNEKFKGKATLTVDESSSTAYMQLSSLTSEDSAVYFCSRSGYGYYAMEYWGQGTSVTVSS
VL: DIVLTQSPAILSVSPGERVSFSCRASQNIGTSIHWYQQRTNESPRLIIKYASESISGIPSRFSGSGSGTDFTLSINSVESEDIADYYCQQSNTWPYTFGGGTKLELK
B2: pomolog lcS32A (POM1 scFv, light chain S32A) (scFv, V domains shown)
VH: B1 VH with A57Y
VL: B1 VL with S32A
B3: pomolog lcY96A (POM1 scFv, light chain Y96A) (scFv, V domains shown)
VH: B1 VH with A57Y
VL: B1 VL with Y96A
B4: pomolog lcW94A (POM1 scFv, light chain W94A) (scFv, V domains shown)
VH: B1 VH with A57Y
VL: B1 VL with W94A
B5: pomolog lcY50A (POM1 scFv, light chain Y50A) (scFv, V domains shown)
VH: B1 VH with A57Y
VL: B1 VL with Y50A
B6: pomolog lcS91A (POM1 scFv, light chain S91A) (scFv, V domains shown)
VH: B1 VH with A57Y
VL: B1 VL with S91A
B7: pomolog hcY104A (POM1 scFv, heavy chain Y104A) (scFv, V domains shown)
VH: B1 VH with A57Y, Y104A
VL: B1 VL
B8: pomolog hcD55A (POM1 scFv, heavy chain D55A) (scFv, V domains shown)
VH: B1 VH with D55A, A57Y
VL: B1 VL
B9: pomolog hcY101A (POM1 scFv, heavy chain Y101A) (scFv, V domains shown)
VH: B1 VH with A57Y, Y101A
VL: B1 VL
B10: pomolog hcD52A (POM1 scFv, heavy chain D52A) (scFv, V domains shown)
VH: B1 VH with D52A, A57Y
VL: B1 VL
B11: POM1 scFv pomolog hcD52A (scFv, V domains shown)
VH: B1 VH with D52A, A57Y
VL: B1 VL
B12: POM1 scFv pomolog lcY96A (scFv, V domains shown)
VH: B1 VH with A57Y
VL: B1 VL with Y96A
B13: POM1 scFv pomolog lcS32A (scFv, V domains shown)
VH: B1 VH with A57Y
VL: B1 VL with S32A
B14: POM1 scFv pomolog lcS91A (scFv, V domains shown)
VH: B1 VH with A57Y
VL: B1 VL with S91A
B15: POM1 scFv pomolog hcY104A (scFv, V domains shown)
VH: B1 VH with A57Y, Y104A
VL: B1 VL
B16: POM1 scFv pomolog hcY57A (scFv, V domains shown)
VH: B1 VH
VL: B1 VL
B17: POM1 scFv pomolog lcW94A (scFv, V domains shown)
VH: B1 VH with A57Y
VL: B1 VL with W94A
B18: POM1 scFv pomolog hcY101A (scFv, V domains shown)
VH: B1 VH with A57Y, Y101A
VL: B1 VL
B19: POM1 scFv pomolog lcY50A (scFv, V domains shown)
VH: B1 VH with A57Y
VL: B1 VL with Y50A
B20: POM1 scFv pomolog hcD55A (scFv, V domains shown)
VH: B1 VH with D55A, A57Y
VL: B1 VL
B21:  (antibody, V domains shown)
VH: B1 VH with A57Y, Y104A
VL: B1 VL
notes: also called holo-Y104A; hcY104A IgG holoantibody

Substitutions are numbered along the chain they refer to. Names and notes keep the numbering of the source.

The first assay addresses recombinant mouse prion protein immobilised for SPR (mPrP) (Mus musculus, UniProt P04925). Description: SPR. As to conditions: both partners purified.
Broadly, the Kd is the concentration at which binding is half-saturated. In general, koff refers to the rate constant with which the complex falls apart. One may read the kon as a measure of how fast the partners come together. On to B1, for which the dissociation constant Kd came out at 406 nM, the koff stood at 0.031 s⁻¹ and the kon was 77000 M⁻¹ s⁻¹.
For B2, the Kd was found to be 10 nM, the dissociation rate constant (koff) came out at 0.00059 s⁻¹ and the kon is 64000 M⁻¹ s⁻¹.
For B3, the Kd worked out at 123 nM, the off-rate constant (koff) worked out at 0.0074 s⁻¹ and the on-rate (kon) came to 62000 M⁻¹ s⁻¹.
B4: the equilibrium dissociation constant (Kd) was determined as 201 nM, the dissociation rate constant (koff) is 0.027 s⁻¹ and the association rate constant (kon) is 310000 M⁻¹ s⁻¹.
Regarding B5, the Kd is 313 nM, the koff came out at 0.0082 s⁻¹ and the on-rate constant (kon) was 57000 M⁻¹ s⁻¹.
For B6, in that order: 1430 nM, 0.018 s⁻¹ and 13000 M⁻¹ s⁻¹.
Regarding B7, the Kd turned out to be 8.8 nM, the koff stood at 0.00021 s⁻¹ and the on-rate constant (kon) was determined as 36000 M⁻¹ s⁻¹.
In the case of B8, the Kd came to 372 nM, the koff is 0.037 s⁻¹ and the on-rate constant (kon) came to 100000 M⁻¹ s⁻¹.
For B9, in that order: 11 nM, 0.00071 s⁻¹ and 63000 M⁻¹ s⁻¹.
On to B10, for which the Kd was 103 nM, the koff stood at 0.046 s⁻¹ and the on-rate (kon) was found to be 330000 M⁻¹ s⁻¹.

In a further assay the target is mPrP immobilized on the SPR sensor chip (rmPrP) (Mus musculus, UniProt P04925). Description: SPR. The following applies: both partners purified.
The molecule B11 had a dissociation constant Kd of 103 nM.
Still for that read-out and setting: next, B12: 123 nM; B13: 9.98 nM; B14: 1430 nM.
B15: the Kd was 8.79 nM.
B16 came in with a Kd of 406 nM.
The same measure, in the same setting: next, B17: 201 nM; B18: 11.5 nM.
B19 had a Kd of 313 nM.
Turning to B20, the Kd is 372 nM.

The next assay addresses globular domain fragment of recombinant human PrP (rhPrP121-230) (Homo sapiens, UniProt P04156). As to the kind of experiment: ELISA. The following applies: both partners purified.
Regarding B21, the binding result is on record as “binds”.

The target of another assay is recombinant mouse PrP flexible tail fragment (rmPrP23-110) (Mus musculus, UniProt P04925). Description: ELISA. The following applies: both partners purified. On the technique in general: In an ELISA, binding on a coated surface is turned into a signal by an enzyme label.
For the molecule B21, the binding result is “no binding”.

The target in a further assay is full-length, recombinant mouse prion protein (rmPrP23-231) (Mus musculus, UniProt P04925). Description: FRET or BRET. The following applies: both partners purified. (In general: Bioluminescence resonance energy transfer reports proximity on the nanometre scale.)
Regarding B11, the Kd came to 14.2 nM.
Take B12: the Kd turned out to be 138 nM.
Regarding B13, the dissociation constant (Kd) came to 7.3 nM.
The same measure, in the same setting: in the case of B14 it was 92.3 nM; in that of B15, 26 nM; in that of B16, 225 nM.
As for B17, the dissociation constant Kd came out at 73.1 nM.
For the molecule B18, the Kd is 1.5 nM.
Still for that read-out and setting: in the case of B19 it was 63.4 nM.
Regarding B20, the equilibrium dissociation constant (Kd) is 110 nM.
